# Source: the DeepSol protein solubility set
# Test: soluble on expression in E. coli; label from the status in PepcDB or PDB records
row,Sequence,soluble on expression in E. coli
1,MGSDKIHHHHHHMADLTDLERTRHLVDLLAPARKTRIVDIGANPINDNPYAPLLDIGAAEVWGFEPQTEAFDKLVARNAPDEHYVNAAVGKGGTGTLNICASSGTSSLLTPNVDAMDAVTGWHKYFEVVGTVDVETKRLDNIAEIPEFDLLKIDVQGAEREVFTYGKKRLSTALAVITEVAAIPLYEDQPLLGDQMVLLGKLGFDLHKFLFWKDVVLRSKYLNGMRRRRMRTQLVDGDAVFVRDLLHLKDMETERLKHLTLLADAVFESFDMVLYCLEILEDRGVLTEAAIRTYVARMPYQRDPQPRLVESVGQ,not soluble
2,MGSDKIHHHHHHMADNETIPSCANCSAVWQKSGTTNCWSSPDNRPGQPANCPSKTSPDIIDESFAEYRGDGDDARLARVAARVEGLCYQKMQGSDAVVARWTRVEDTVALAKLMGWTKVGIATCIGLLEETKQLVTILEAQGLEPASVCCKSGSIDKLELGLEESDKVRPGTFEPACNPIAQAEILNRCGTQMNIIVGLCVGHDMLFTKHSKAPVTTLVCKDRVTGHNPAAVLYGQNFYYKRLKVQPVAVPTEEK,not soluble
3,MGSDKIHHHHHHMADQKETIKPFKKIAIFDIFSGENSEIICSDKSKIAAQVNKWVNRAISNGADSCYVRLYEANKENIDTIIENLSYKILQIILPFSLNYKSSLVSAFHFREKDQIKMPEAKSNNVLFGKSCHSLKSIEEAEYEGLDYVFFSPIFATPTHPEAKGIGLDMLTQACKSTQMKVFALGGINENNYQKCLDAGASGIAAISMFKK,not soluble
4,MGSDKIHHHHHHMAFIAGEIAAVLDLPEVLRRRLFVAALLHDVGALSPEEKMDLYASKVEECDTHCIRGARLLHQVDGFGEEGRVLRLHHATLRDGSLADVDEDTARLAQIVHLSDLVDRALDRGRYVLHQADTMCDMARDLARCDFEVSIVRAFLEVARREDFWLQMVLPTLGQHLEAISPCRGEMLDACGVEVHAGLVQGMVDFRSSFTAAHSAGVAEAADALGGYCDLSPERRVVLRIAGLLHDLGKMAVPTSILEKPSGLTKAEFAFMRQHTFHTYRLLRGVDGLGGMAAWAAYHHEKLDGSGYPFHLEGRALDPQARIIGVADIFTAMAEDRPYRKGQGREGVLRVLRDECTTGRVDGELVETVAESYPDMVGRVLDAQHAARSRFSDVLQPAGEKGAKADQST,not soluble
5,MGSDKIHHHHHHMAFIKPEQQFNPDALHNLVIGIAADMGKHDSGMHHHHKAQLLYASAGCMRFSLADTQVVLPPTRAAWLPAGVEHHVTMRNVVAYRSLYFEPEAVASLPSEVTIFHVNPLLKALIDTMSYWPWNKPRYSQHNAFALFCEELENAKAENLALPLPQDKRLQTWLKQVLQQEMQPANLKEMAIEIGASERTISRIFSSQTGMAYQAWRQQWRLLSAIEQLAAGTSVAQAGFNLQFSSDSAFISFFKQYTGTTPAQYFK,not soluble
6,MGSDKIHHHHHHMAFKTPLADRMRPQSLEQMVGQQDLLKAGQPLRQIIDQHVNIPLILWGPPGTGKTSLAQIIASQDDYPFVAFNASTENKAQLTKAIAQYPEQSFVLLIDEIHRMTKTLQDFLLPYLENGHVMLIGSTTENPIMSIVPAIRSRCQIFEFQPLSDTDIEIALRRAVTDIYNLTDDQVDAKALNLIAISAEGDLRIALNILETLHAIDQKQITVAAVQHFAQQQHFSYDRKATKHYDYLSAYSDSMAGSDTDAALYYLTILLKNDDLPSVVRRLREIPYTYIGLANPEQVTQIVVAANQAEKIGMPKAKYPLMFATMLMCISPKSGSFDQSWEKLDQDTQNPSQHPMPRGLRDMHYKHSEEITGGGLIDNPFQMPHQIAQQNYMPKGLAGRRYYYPKDNENERKLGAQYLKLHRFIYNEDYHE,not soluble
7,MGSDKIHHHHHHMAGKLFIVILTPVCNGNCLYCGGYDEGLMPPKIQYPLESLKKIADGNSVAFYGGEPLLEMEKMKEIMDSVKAEHFILQTNGLKLNRLEDEYIRRFSTILVSFDGRREVHDLYRGNYERVLENVLNVRRKGFEGELIARMVASQETDIYEDVMHILNLDCFTHVHWQIDAVWSSDGVWRDFERWVERYNAGVRKLVKFWASELRKGVLHGLVPFMGVATAIFKPFTHPPCSSGFESFAIATDGRILACPICPDLDWNEVGSLDEGIKRRLEILEPCLSCSYFRFCGGRCVFFNRERLWGDRGFRLVCSTVKNLVDSILACKHLILANKEKIMYPRFLNTTEIIP,not soluble
8,MGSDKIHHHHHHMAGKQLLLMDGIHKRFGPLIVSAGVTLDVEENEIHALLGENGAGKTVLMSILCGVLSPNEGQIVFKGRPLKLGSPREAIKHRIGMVHQHFMLVPNLTVAENYVLGQGSPFSMIRDMRAVHARILELSDRYGLDVAPDALVSSLSVGERQRVEILKVLYHGIELLILDEPTAVLTPQETDRLLHLLRQLVADGKTVIFISHKLDEVMRVSDRVSVMRDAKVVRTVKTSETTARELARMMVGRDVLMYLPRAPLEPGRVVLSVEHLSCDGEAGLPALRDVSFEVRANEIVGIAGVSGNGQSELALALTGLLPVASGSVTLDGTQLAGLSSYEINQLPMAHIPEDRHRMGIVLPLPLTENVILQRFDKPPFSSRGLLDLNEITRQTRDLMRRFKVKASGPGDRIRNLSGGNQQKLVVGRELDRRFDFLLINQLTRGIDIGATELVMHKILEQRSAGKAILLISTELEELFTLSDRILVMYEGRLVGEIPPDRSRLEEIGLLMAGKSPLSAA,not soluble
9,MGSDKIHHHHHHMAGRFDAFVLFAEMRTGSNYLEDSLNTFADINCLGEVFNPTFIGHDNNFEMLGYDMDRREHDPLGLLDAIIDTVDGLPGFRLFHDHDTRVVDRVLPDPRIAKVILTRNPLDSYVSRKIATATGQWKLTDMKHAKTAQIRFDADEFGALLDAVLPFQEYVRQGLLKSGQVAFQVRYEDINDPEMLNGLAAFLGSDERVERASKTLKRQNPAPLRDKVENYEEMVAALSDLDRFGLDKLPELEPDRGAQVPNFVAHPTLGLLFCPIKGAPEKSVLNWMGALGDVGKDALIRKMTQKQLRQWMKDNPGFRSFTVLRHPVVRAYTVFNRFILPDDRPAYADPRKTLRQRYKVPIPENAPGDGWTEAEQKAAFQGFIFFLKGNLAGQTSVRVDQAWATQTAILQGTSSVMVPQAVIHEDHMTEALPALAHQVGAEDVPQVVEEAMPGLHKLKSIYDGKIEQALIDTYRRDYVGFGFPRWNKR,not soluble
10,MGSDKIHHHHHHMAGSAGGLSASDGDFFLCDLFDPVPKGDLGTMEHPVFSLATRPDRRILTYEHNGVEITVTPSVKGRATIFDKDILIFCTSQLMAAINANRPVSRTLQLTAHDLLLATGRDRSGDGYKRLRAAFERLAGTRITTNLITGGVEVTQGFGLIEAWQIVRRTRNGRMVSVSVTLSEWLYRAALTKSVLTLSRQYFRMRKPLERRIYELARKHCGRQNEWRVSVDTLLKKSGSASPRRVFRAMLREMIAADALPDYHLQEEPGDILRVTLRDAVIEAAGRPIVSSDTLNQARALMPGWDVYVLEAEWRNWWAATGRPHLRSPDKAFLGWVRTQAARA,not soluble
11,MGSDKIHHHHHHMAGTTTTRKKFRVAVSGATVDGREIKPEHLRDAAANYSPDVYGARVNVEHYLSPYPDSDFGAMGDVTALSAEDITDGPLSGRTALYAEIEPSARMKQLTDAGKKVFSSIELHPQFALNGKAYVMGLAMTDTPASLGTERLKFATQQRAQVMAFNNQQAEAPMFSDAIEADVIELTAQRGEEGKQWFNRVMGIMGKGKKSDDERFSQVHQAVEVVAQSQADLSDQFSAVEQARASDKQAIEKLTSDFEALRQKLSVTDGSFSHRPPAGGGNNSQLADY,not soluble
12,MGSDKIHHHHHHMAHEMIGTQIVTERLVALLESGTEKVLLIDSRPFVEYNTSHILEAININCSKLMKRRLQQDKVLITELIQHSAKHKVDIDCSQKVVVYDQSSQDVASLSSDCFLTVLLGKLEKSFNSVHLLAGGFAEFSRCFPGLCEGKSTLVPTCISQPCLPVANIGPTRILPNLYLGCQRDVLNKELMQQNGIGYVLNASNTCPKPDFIPESHFLRVPVNDSFCEKILPWLDKSVDFIEKAKASNGCVLVHCLAGISRSATIAIAYIMKRMDMSLDEAYRFVKEKRPTISPNFNFLGQLLDYEKKIKNQTGASGPKSKLKLLHLEKPNEPVPAVSEGGQKSETPLSPPCADSATSEAAGQRPVHPASVPSVPSVQPSLLEDSPLVQALSGLHLSADRLEDSNKLKRSFSLDIKSVSYSASMAASLHGFSSSEDALEYYKPSTTLDGTNKLCQFSPVQELSEQTPETSPDKEEASIPKKLQTARPSDSQSKRLHSVRTSSSGTAQRSLLSPLLRSGSVEDNYHTSFLFGLSTSQQHLTKSAGLGLKGWHSDILAPQTSTPSLTSSWYFATESSHFYSASAIYGGSASYSAYSCSQLPTCGDQVYSVRRRQKPSDRADSRRSWHEESPFEKQFKRRSCQMEFGESIMSENRSREELGKVGSQSSFSGSMEIIEVS,not soluble
13,MGSDKIHHHHHHMAIISEHHIFLSDDANVGLQTRLKDAITRAIWDGRFAPGDRLPATRALARHLGISRITVSLAYDALLSTGYIVSIARSGYFVASDAPTRMEIVTPGKGDARDRLDWAARLGPVPPALGAQATPADWRRFRYPFIFGEPDVARFPVDDWRDCVRRGLGKRHFEQVADDASDRDDPFLVEQIVRRSVSGRGVAATVDEVLVTAGAQNALWLMVQVLFGGQGGEVAMEDPGYPELRNLLRQQRLTIHPVPVDRDGLKVDRIPEGVRAVFVTPSHQAPTGATMSMARRQALLERAEAEDFVVIEDDYDYEMSYASPSLPALKSLDQRGRVIYIGSFSKSIFPGLRLGYLTADARVVEHARAIRTLSERHPPGLTQRTVAYFLSEGHYNSHSRRMRMRMARRNEVLREALAEHGLTPALRRATGGTTLWLLGPEDLDADALAVSLRDKSVLIEAGSAFYAGGDAPRNRVRLGFATIETARIADGVALIAEAIREQAPTPR,not soluble
14,MGSDKIHHHHHHMAIKATDLFKLVSLSYPSATDDGYFVQENRISEADNTYYQRICFVNHRGGTIAYGFDQKHDRHPLLSPDQQWLAFLSQASDKTTQVFLQAVNGGTAKQFSAEKEGVSYFGWQADSQALFIQTTVGAKPKKTDKQWPQPVTVSRVPYKLNGVGLLPEHVAYELRVQRLRQKTSRLVMGREHEFEVGAISPDGQTLAFTAERLPDDPNDFSQATYLLNLADQQVTMVNDQLPQAALSPEAFSADGKQLLLVGSDNHLPNVSQSHLWHYDLATKTLQDVADDIDFDIPGHVNGDFQQDLSEKVADFATADYYLTIGFDHGKTSLYAGGPDEQLTPLIGGRRHVTDYALTPDHHGVVFTESTMTVPSRLSYFDLATEEEHVIYDPNRRVTRDMGLVTPQTFNFQRDGFEIEGWYFPPQQATASHPAILYVHGGPAVGYGYTFFHEMQFLAA,not soluble
15,MGSDKIHHHHHHMAKEKTIYVCRSCGTKYAKWQGNCNACGEWNCIDEEKVPAPASGKHAAKSFMPREQDNRPRLLQDVESGDEERIRLGDEEFDRVLGGGIVKGAFVLLGGEPGIGKSTLILQTVLRLPQLRTLYVSGEESARQLKMRAERLGQAMNGCYVYCETNIERILSRAEELTPDLLVIDSIQTVYTEEMESSAGSVGQIRECAALLLKYCKTTGIPVIVIGHITKEGSIAGPKVLEHIVDTVLLFDGDKHHLYRILRGQKNRYGSTSELGIYEMRQDGLRGVENPSEHLITRNREDLSGIAIAVAMEGIRPILIEAQALVSSAIYANPQRSATGFDIRRMNMLLAVLEKRAGFKLIQKDVFLNIAGGIKIADPATDLAVISAVLASSLDIVIPPAVCMTGEVGLSGEIRPVSRIEQRITEARRIGFKEILVPADNFRQEDAGRFGIRLVPVRKVEEAFRHLFSKGRE,not soluble
16,MGSDKIHHHHHHMAKRKKDTMEFRFYELPQGESALVLCGESWKRVYGHDELHLHFHNLLEIGICREGDGNMYLDEDIYQYHDGDITFIPENFPHVTVSYGEVVNFWEYIFIDLRSVIEEMFPNNAAFQNDAVSTISKKAFMTNVYQSPVVAGYINSIIRETNEHKEYSQRTIKLLVQGIVIELLRKYDELPEEDNDVVKGTNMSQIATALDYMNKHYSETIKAGELSSLCNMSETHFRRLFESYINMPPMEYLNLIRVQKACELMKKTNEPMELIAQKCGFTTQSTFNRNFRKFLNTSPYQWKINPENYEHKLLNFRISALKGW,not soluble
